In the supplement of paper PMC9112550, “Optimization of the antimicrobial peptide Bac7 by deep mutational scanning” (BMC Biology, 2022):

What follows are sequences tested on Escherichia coli TOP10 (assay: shrunken log2 fold change of peptide-encoding DNA abundance (4.5 h post-induction vs induction); higher = less antimicrobial activity (less host growth inhibition)). Details: time post-induction: 4.5 h; library: site-saturation at positions 5, 18, 19, 20.
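Further: peptides expressed intracellularly from a pBAD plasmid library in pooled LB shake-flask culture, induced with 0.3% L-arabinose, DNA abundance read by NGS, three biological replicates, DESeq2 with apeglm shrinkage.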

Sequence | shrunken log2 fold change
RRIRLRPPRLPRPRPRPKRMPRP | -0.029
RRIRPRPPRLPRPRPRPQCVPRP | 0.14
RRIRTRPPRLPRPRPRPMRVPRP | -0.036
RRIRKRPPRLPRPRPRPQSIPRP | 0.147
RRIRWRPPRLPRPRPRPAYTPRP | 0.0906
RRIRFRPPRLPRPRPRPSHVPRP | -0.281
RRIRMRPPRLPRPRPRPQHQPRP | 0.214
RRIRPRPPRLPRPRPRPPKRPRP | 0.496
RRIRWRPPRLPRPRPRPCGIPRP | 0.0389
RRIRLRPPRLPRPRPRPIDGPRP | -0.0968
RRIRYRPPRLPRPRPRPAQSPRP | 0.256
RRIRKRPPRLPRPRPRPAKQPRP | 0.0123
RRIRPRPPRLPRPRPRPNLVPRP | -0.225
RRIRSRPPRLPRPRPRPYKGPRP | -0.186
RRIRGRPPRLPRPRPRPMYRPRP | 0.115
RRIRVRPPRLPRPRPRPGFMPRP | -0.152
RRIRPRPPRLPRPRPRPNFNPRP | -0.273
RRIRWRPPRLPRPRPRPHISPRP | 0.00485
RRIRERPPRLPRPRPRPEQMPRP | -6.54e-05
RRIRERPPRLPRPRPRPMDVPRP | -0.0821
RRIRKRPPRLPRPRPRPLDYPRP | -0.202
RRIRMRPPRLPRPRPRPPHFPRP | 1.03
RRIRGRPPRLPRPRPRPITLPRP | 0.217
RRIRLRPPRLPRPRPRPNCVPRP | 0.138
RRIRKRPPRLPRPRPRPMMTPRP | 0.452

Sequence | shrunken log2 fold change
RRIRERPPRLPRPRPRPNWDPRP | -0.125
RRIRWRPPRLPRPRPRPFLVPRP | -0.293
RRIRFRPPRLPRPRPRPITQPRP | -0.278
RRIRYRPPRLPRPRPRPTMCPRP | -0.159
RRIRVRPPRLPRPRPRPSDVPRP | -0.184
RRIRERPPRLPRPRPRPRMFPRP | 0.00669
RRIRERPPRLPRPRPRPKNTPRP | -0.439
RRIRDRPPRLPRPRPRPNLHPRP | -0.0379
RRIRHRPPRLPRPRPRPPGHPRP | 0.184
RRIRARPPRLPRPRPRPTNMPRP | -0.275
RRIRVRPPRLPRPRPRPLMPPRP | 0.0146
RRIRIRPPRLPRPRPRPQCTPRP | -0.769
RRIRMRPPRLPRPRPRPWWRPRP | 0.494
RRIRFRPPRLPRPRPRPIKNPRP | -0.514
RRIRTRPPRLPRPRPRPTQGPRP | 0.358
RRIRMRPPRLPRPRPRPLNMPRP | -0.0641
RRIRERPPRLPRPRPRPSFCPRP | -0.593
RRIRQRPPRLPRPRPRPNAFPRP | 0.227
RRIRKRPPRLPRPRPRPWVPPRP | 0.481
RRIRQRPPRLPRPRPRPHDEPRP | -0.158
RRIRPRPPRLPRPRPRPANHPRP | -0.0982
RRIRCRPPRLPRPRPRPMWFPRP | -0.254
RRIRSRPPRLPRPRPRPAEGPRP | 0.29
RRIRGRPPRLPRPRPRPIPVPRP | 0.0104
RRIRGRPPRLPRPRPRPMVFPRP | 0.78

Sequence | shrunken log2 fold change
RRIRPRPPRLPRPRPRPDTCPRP | -0.594
RRIRVRPPRLPRPRPRPRSTPRP | 0.0765
RRIRHRPPRLPRPRPRPRYHPRP | -0.315
RRIRPRPPRLPRPRPRPNTFPRP | -0.0232
RRIRHRPPRLPRPRPRPTNQPRP | -0.425
RRIRHRPPRLPRPRPRPDDCPRP | -0.00674
RRIRMRPPRLPRPRPRPVTWPRP | 0.216
RRIRERPPRLPRPRPRPFDWPRP | 0.0619
RRIRTRPPRLPRPRPRPPTTPRP | 0.302
RRIRDRPPRLPRPRPRPSRNPRP | 0.326
RRIRWRPPRLPRPRPRPELAPRP | 0.758
RRIRKRPPRLPRPRPRPDFMPRP | 0.028
RRIRFRPPRLPRPRPRPHNGPRP | -0.0493
RRIRSRPPRLPRPRPRPEITPRP | -0.13
RRIRCRPPRLPRPRPRPRIHPRP | -0.226
RRIRCRPPRLPRPRPRPKSCPRP | 0.0733
RRIRSRPPRLPRPRPRPTTHPRP | 0.0655
RRIRIRPPRLPRPRPRPFIKPRP | -0.913
RRIRKRPPRLPRPRPRPQARPRP | -0.0213
RRIRTRPPRLPRPRPRPWFVPRP | -0.243
RRIRYRPPRLPRPRPRPYRAPRP | -0.0919
RRIRDRPPRLPRPRPRPYMTPRP | -0.0206
RRIRSRPPRLPRPRPRPIKIPRP | -0.209
RRIRLRPPRLPRPRPRPPQHPRP | 0.197
RRIRNRPPRLPRPRPRPHLSPRP | -0.259

Sequence | shrunken log2 fold change
RRIRTRPPRLPRPRPRPTLEPRP | 0.0319
RRIRLRPPRLPRPRPRPPNSPRP | 0.0409
RRIRMRPPRLPRPRPRPPACPRP | 1.22
RRIRHRPPRLPRPRPRPSWEPRP | -0.0671
RRIRYRPPRLPRPRPRPYNMPRP | -1.09
RRIRCRPPRLPRPRPRPHLFPRP | -0.198
RRIRRRPPRLPRPRPRPCKTPRP | -0.103
RRIRTRPPRLPRPRPRPATKPRP | 0.0756
RRIRVRPPRLPRPRPRPMTCPRP | -0.141
RRIRDRPPRLPRPRPRPAHFPRP | 0.358
RRIRDRPPRLPRPRPRPMKYPRP | 0.0311
RRIRIRPPRLPRPRPRPTWQPRP | 0.0597
RRIRNRPPRLPRPRPRPACHPRP | 0.152
RRIRYRPPRLPRPRPRPVNWPRP | -0.0321
RRIRCRPPRLPRPRPRPYIEPRP | -1.03
RRIRRRPPRLPRPRPRPDDWPRP | 0.359
RRIRERPPRLPRPRPRPCLYPRP | -0.489
RRIRGRPPRLPRPRPRPLPNPRP | 0.781
RRIRYRPPRLPRPRPRPGFNPRP | -0.46
RRIRMRPPRLPRPRPRPFPPPRP | 0.103
RRIRKRPPRLPRPRPRPEDIPRP | -0.00208
RRIRMRPPRLPRPRPRPIRQPRP | -0.0521
RRIRGRPPRLPRPRPRPNDHPRP | 0.143
RRIRERPPRLPRPRPRPKEKPRP | 0.121
RRIRNRPPRLPRPRPRPFPVPRP | -0.125

Sequence | shrunken log2 fold change
RRIRIRPPRLPRPRPRPILKPRP | 0.134
RRIRSRPPRLPRPRPRPRETPRP | 0.124
RRIRIRPPRLPRPRPRPCYGPRP | -0.202
RRIRWRPPRLPRPRPRPIPVPRP | -0.11
RRIRFRPPRLPRPRPRPPTKPRP | 0.709
RRIRQRPPRLPRPRPRPNHKPRP | -0.493
RRIRPRPPRLPRPRPRPFTEPRP | -0.649
RRIRIRPPRLPRPRPRPHMFPRP | -1
RRIRNRPPRLPRPRPRPHDKPRP | -0.313
RRIRARPPRLPRPRPRPVISPRP | 0.0798
RRIRHRPPRLPRPRPRPQAGPRP | -0.0176
RRIRTRPPRLPRPRPRPKMSPRP | 0.116
RRIRPRPPRLPRPRPRPCSEPRP | -0.00276
RRIRIRPPRLPRPRPRPLCQPRP | 0.127
RRIRDRPPRLPRPRPRPYRCPRP | -0.0315
RRIRARPPRLPRPRPRPDAQPRP | 1.35
RRIRCRPPRLPRPRPRPMVVPRP | -0.0292
RRIRQRPPRLPRPRPRPLFIPRP | -0.673
RRIRARPPRLPRPRPRPVVWPRP | 0.687
RRIRERPPRLPRPRPRPWGSPRP | -0.0459
RRIRDRPPRLPRPRPRPSACPRP | 0.294
RRIRCRPPRLPRPRPRPNVVPRP | 0.0385
RRIRFRPPRLPRPRPRPQRKPRP | 0.089
RRIRMRPPRLPRPRPRPWWSPRP | 0.334
RRIRCRPPRLPRPRPRPVAHPRP | -0.277

Sequence | shrunken log2 fold change
RRIRLRPPRLPRPRPRPRNPPRP | -0.0997
RRIRNRPPRLPRPRPRPLSNPRP | -0.386
RRIRWRPPRLPRPRPRPETAPRP | 0.177
RRIRVRPPRLPRPRPRPDMFPRP | 0.0441
RRIRMRPPRLPRPRPRPFLVPRP | -0.0501
RRIRHRPPRLPRPRPRPDLCPRP | 0.00487
RRIRRRPPRLPRPRPRPGMLPRP | 0.0899
RRIRSRPPRLPRPRPRPKTQPRP | -0.0511
RRIRHRPPRLPRPRPRPCKNPRP | -0.444
RRIRGRPPRLPRPRPRPRYVPRP | -0.0805
RRIRKRPPRLPRPRPRPAYEPRP | 0.0198
RRIRDRPPRLPRPRPRPDHYPRP | -0.183
RRIRRRPPRLPRPRPRPIFEPRP | 0.0525
RRIRRRPPRLPRPRPRPMCRPRP | 0.37
RRIRYRPPRLPRPRPRPQNIPRP | -1.24
RRIRNRPPRLPRPRPRPTCVPRP | -0.185
RRIRHRPPRLPRPRPRPCIFPRP | -0.597
RRIRNRPPRLPRPRPRPYSMPRP | -0.292
RRIRFRPPRLPRPRPRPSMTPRP | -0.227
RRIRNRPPRLPRPRPRPEPMPRP | 0.132
RRIRLRPPRLPRPRPRPLYYPRP | -0.274
RRIRERPPRLPRPRPRPANSPRP | -0.0581
RRIRPRPPRLPRPRPRPRKTPRP | 0.0393
RRIRWRPPRLPRPRPRPACDPRP | 0.788
RRIRHRPPRLPRPRPRPCSCPRP | -0.0391
